[ ]: non-standard residue; d: D form. pGlu = O=C1CC[C@@H](C(=O)O)N1
What was measured:
[1] = target: aCII6 polyclonal antibody against GnRH-II; test: RIA cross-reactivity with antibody aCII6 (relative to GnRH-II)
[2] = target: KLII-2 antiserum against GnRH-II; test: RIA cross-reactivity with antiserum KLII-2 (relative to GnRH-II)

cross-reactivity [1]: 0.013%
cross-reactivity [2]: 0.003%
B1: Salmon GnRH (sGnRH) (peptide)
peptide: [pGlu]HWSYGWLPG-NH2
SMILES: CC(C)C[C@H](NC(=O)[C@H](Cc1c[nH]c2ccccc12)NC(=O)CNC(=O)[C@H](Cc1ccc(O)cc1)NC(=O)[C@H](CO)NC(=O)[C@H](Cc1c[nH]c2ccccc12)NC(=O)[C@H](Cc1c[nH]cn1)NC(=O)[C@@H]1CCC(=O)N1)C(=O)N1CCC[C@H]1C(=O)NCC(N)=O

Reference: patent US20050158309A1
